Data from patent publication US20250312376A1 (FLAGSHIP PIONEERING INNOVATIONS VI, published 2025).

Molecular target: T1, BCMA on BCMA-positive tumor cell lines (H929, RPMI-8226) (UniProt Q02223 1-184, limits assumed)
T1 sequence (looked up): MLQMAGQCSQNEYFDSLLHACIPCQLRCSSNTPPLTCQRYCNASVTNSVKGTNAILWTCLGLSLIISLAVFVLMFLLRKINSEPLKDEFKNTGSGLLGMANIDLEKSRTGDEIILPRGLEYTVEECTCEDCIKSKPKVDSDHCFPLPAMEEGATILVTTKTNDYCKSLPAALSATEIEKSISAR
Test: cell-based or functional assay

B1: BCMA-CAR fusion polypeptide (receptor)
chain: QVQLVQSGAEVKKPGASVKVSCKASGYSFPDYYINWVRQAPGQGLEWMGWIYFASGNSEYNQKFTGRVTMTRDTSSSTAYMELSSLRSEDTAVYFCASLYDYDWYFDVWGQGTMVTVSSGGGGSGGGGSGGGGSDIVMTQTPLSLSVTPGEPASISCKSSQSLVHSNGNTYLHWYLQKPGQSPQLLIYKVSNRFSGVPDRFSGSGSGADFTLKISRVEAEDVGVYYCAETSHVPWTFGQGTKLEIKTTTPAPRPPTPAPTIASQPLSLRPEACRPAAGGAVHTRGLDFACDIYIWAPLAGTCGVLLLSLVITLYCRSKRSRLLHSDYMNMTPRRPGPTRKHYQPYAPPRDFAAYRSRVKFSRSADAPAYQQGQNQLYNELNLGRREEYDVLDKRRGRDPEMGGKPRRKNPQEGLYNELQKDKMAEAYSEIGMKGERRRGKGHDGLYQGLSTATKDTYDALHMQALPPR
% killing at a 0.625 ratio of effector T cells to tumor cells (one donor): > 50%
